Source: PMC12343752, “Functional and structural insights into a thermostable (S)-selective amine transaminase and its improved substrate scope by protein engineering” (Applied Microbiology and Biotechnology, 2025)

Columns and labels:
[1] = target: Sbv333-ATA, (S)-selective amine transaminase from a Streptomyces strain (Streptomyces sp.); assay: SEC; analytical gel filtration, single peak; methods describe a calibrated Superdex 200 pg HiLoad 16/600 column, 20 mM HEPES pH 9.0, 500 mM NaCl
Sbv333-ATA = target: T1, Sbv333-ATA (Streptomyces odorifer, UniProt A0A7Y6F089); assay: glycine oxidase (GO) coupled assay; acetophenone formation at […] nm; format: biochemical; conditions: 2 mM amine, 50 mM HEPES pH 9.0, room temperature (GO assay)
T1 construct: gene G6W59_16020; 6xHis-tagged, pETite vector, E. coli BL21(DE3) with GroES/GroEL, Ni-NTA (plus SEC for crystals); residues 1-459 described; dimer about 100 kDa by gel filtration; catalytic Lys289
T1 sequence (A0A7Y6F089 entry or part of it): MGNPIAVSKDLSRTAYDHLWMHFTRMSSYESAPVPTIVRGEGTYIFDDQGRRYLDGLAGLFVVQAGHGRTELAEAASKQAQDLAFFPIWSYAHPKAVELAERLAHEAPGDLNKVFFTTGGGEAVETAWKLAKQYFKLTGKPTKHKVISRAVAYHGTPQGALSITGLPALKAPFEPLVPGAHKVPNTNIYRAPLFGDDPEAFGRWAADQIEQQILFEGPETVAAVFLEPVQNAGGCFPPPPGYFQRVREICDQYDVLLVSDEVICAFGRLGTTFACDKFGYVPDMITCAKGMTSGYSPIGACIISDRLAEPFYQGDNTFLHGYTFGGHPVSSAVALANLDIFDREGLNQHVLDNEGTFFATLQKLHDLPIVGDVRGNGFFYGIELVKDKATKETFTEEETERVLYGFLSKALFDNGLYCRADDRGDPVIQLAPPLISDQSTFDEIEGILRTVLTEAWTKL

stoichiometry N [1]	Molecule	glycine oxidase (GO) coupled assay; acetophenone formation at 245 nm (Sbv333-ATA)
2	Sbv333-ATA, (S)-selective amine transaminase from a Streptomyces strain (enzyme)	
	C[C@H](N)c1ccccc1 [compound 1, (S)-methylbenzylamine]	The enzyme was active toward a diverse set of substrates, including (S)-methylbenzylamine ((S)-1)
